Substrate: O=[N+]([O-])c1ccc(OP(=O)(O)O)cc1
Experiment: purified protein
Conditions: pH 8.0; 37.0 °C

B1: RsbU phosphatase domain (Mycobacterium tuberculosis H37Rv) (protein)
chain: AAGGDWFDALALGDRLVLVVGDVVGHGVEAAAVMSQLRTALRMQISAGYTVVEALEAVDRFHKQVPGSKSATMCVGSLDFTSGEFQYCTAGHPPPLLVTADASARYVEPTGAGPLGSGTGFPVRSEVLNIGDAILFYTDGLIERPGRPLEASTAEFADLAASIASGSGGFVLDAPARPIDRLCSDTLELLLRSTGYNDDVTLLAMQRR
B1 showed a Km of 7.47 ± 1.22 mM and a Vmax of 0.07 µmol/min/mg.

B2: PAS+phosphatase fusion protein (Mycobacterium tuberculosis H37Rv) (protein)
chain: MAAEMDWDKTVGAAEDVRRIFEHIPAILVGLEGPDHRFVAVNAAYRGFSPLLDTVGQPAREVYPELEGQQIYEMLDRVYQTGEPQSGSEWRLQTDYDGSGVEERYFDFVVTPRRRADGSIEGVQLIVDDVTSRVRARQAAEARVEELSERYRNVRDSATVMQQALLAASVPVVPGADIAAEYLVAAEDTAAGGDWFDALALGDRLVLVVGDVVGHGVEAAAVMSQLRTALRMQISAGYTVVEALEAVDRFHKQVPGSKSATMCVGSLDFTSGEFQYCTAGHPPPLLVTADASARYVEPTGAGPLGSGTGFPVRSEVLNIGDAILFYTDGLIERPGRPLEASTAEFADLAASIASGSGGFVLDAPARPIDRLCSDTLELLLRSTGYNDDVTLLAMQRR
Work on B2 yielded a Km of 2.54 ± 0.35 mM and a Vmax of 0.07 µmol/min/mg.

From PMC3662962
